In patent US20140186363A1 (UNIVERSITY OF ZURICH, published 2014):

T1: MAGEA4 (UniProt P43358 1-317, limits assumed)
T1 construct: also called recombinant MAGEA4-protein; CT1.4
T1 sequence (looked up): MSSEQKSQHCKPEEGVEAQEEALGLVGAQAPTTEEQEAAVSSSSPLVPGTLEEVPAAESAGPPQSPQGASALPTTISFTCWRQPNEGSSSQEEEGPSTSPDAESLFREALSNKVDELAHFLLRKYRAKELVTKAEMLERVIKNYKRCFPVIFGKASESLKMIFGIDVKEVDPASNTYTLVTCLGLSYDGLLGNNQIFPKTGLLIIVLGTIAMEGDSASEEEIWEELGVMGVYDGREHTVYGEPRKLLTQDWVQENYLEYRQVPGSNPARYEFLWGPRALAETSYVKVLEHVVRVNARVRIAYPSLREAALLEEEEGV

T2: MAGEA3 peptide no 26
T2 construct: also called MAGEA3 aa 251-270
T2 peptide: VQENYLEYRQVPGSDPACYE

T3: MAGEA3 peptide no 13
T3 construct: also called MAGEA3 aa 121-140
T3 peptide: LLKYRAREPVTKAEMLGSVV

T4: MAGEA3 peptide no 21
T4 construct: also called MAGEA3 aa 201-220
T4 peptide: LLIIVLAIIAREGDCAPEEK

T5: MAGEA3 peptide no 30
T5 construct: also called MAGEA3 aa 291-310
T5 peptide: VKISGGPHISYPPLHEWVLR

T6: MAGEA3 peptide no 11
T6 construct: also called MAGEA3 aa 101-120
T6 peptide: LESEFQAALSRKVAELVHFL

T7: MAGEA3 peptide no 31
T7 construct: also called MAGEA3 aa 295-314
T7 peptide: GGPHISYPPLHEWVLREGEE

T8: MAGEA3 peptide no 20
T8 construct: also called MAGEA3 aa 191-210
T8 peptide: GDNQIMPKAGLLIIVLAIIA

T9: MAGEA3 peptide no 15
T9 construct: also called MAGEA3 aa 141-160
T9 peptide: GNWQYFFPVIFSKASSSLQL

T10: MAGEA3 peptide no 29
T10 construct: also called MAGEA3 aa 281-300
T10 peptide: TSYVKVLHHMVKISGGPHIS

T11: MAGEA3 peptide no 8
T11 construct: also called MAGEA3 aa 71-90
T11 peptide: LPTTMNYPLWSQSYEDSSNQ

T12: MAGEA3 peptide no 7
T12 construct: also called MAGEA3 aa 61-80
T12 peptide: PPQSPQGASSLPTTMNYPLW

T13: MAGEA3 peptide no 24
T13 construct: also called MAGEA3 aa 231-250
T13 peptide: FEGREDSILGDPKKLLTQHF

T14: MAGEA3 peptide no 2
T14 construct: also called MAGEA3 aa 11-30
T14 peptide: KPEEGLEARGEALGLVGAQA

T15: MAGEA3 peptide no 18
T15 construct: also called MAGEA3 aa 171-190
T15 peptide: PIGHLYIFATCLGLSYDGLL

T16: MAGEA3 peptide no 23
T16 construct: also called MAGEA3 aa 221-240
T16 peptide: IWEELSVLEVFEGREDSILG

T17: MAGEA3 peptide no 16
T17 construct: also called MAGEA3 aa 151-170
T17 peptide: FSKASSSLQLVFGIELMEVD

T18: MAGEA3 peptide no 3
T18 construct: also called MAGEA3 aa 21-40
T18 peptide: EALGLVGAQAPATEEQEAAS

T19: MAGEA3 peptide no 22
T19 construct: also called MAGEA3 aa 211-230
T19 peptide: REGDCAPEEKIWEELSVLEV

T20: MAGEA3 peptide no 14
T20 construct: also called MAGEA3 aa 131-150
T20 peptide: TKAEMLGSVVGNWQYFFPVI

T21: MAGEA3 peptide no 27
T21 construct: also called MAGEA3 aa 261-280
T21 peptide: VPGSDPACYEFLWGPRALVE

T22: MAGEA3 peptide no 17
T22 construct: also called MAGEA3 aa 161-180
T22 peptide: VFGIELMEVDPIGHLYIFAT

B1: 32H2 (antibody, V domains shown)
VH: QVQLVESGGGVVQPGRSLRLSCAASGFTFSSNAMHWVRQAPGKGLEWVAVISHDGSNKYYADSVKGRFTISRDNSKNTLYLQMNSLRAEDTAVYYCARDGSGSYFNLDYWGQGTLVTVSS
VL: QSALTQPASVSGSPGQSITISCTGTSSDVGGYNYVSWYQQHPGKAPKLMIYEVSNRPSGVSNRFSGSKSGNTASLTISGLQAEDEADYYCSSYTSSSTLVFGTGTKVTVL
notes: Patient-derived human antibody made recombinantly; also called human monoclonal antibody 32H2
B2: 34G9 (antibody, V domains shown)
VH: EVQLEESGGDLVQPGGSLRLSCAASGFTFSHYWMHWVRQAPGKGLVWVSRINSDGSSTSYADSVKGRFTISRDNAKNTLYLQMNSLRAEDTAVYYCARIGSDGYNYDFWGQGTLVTVSS
VL: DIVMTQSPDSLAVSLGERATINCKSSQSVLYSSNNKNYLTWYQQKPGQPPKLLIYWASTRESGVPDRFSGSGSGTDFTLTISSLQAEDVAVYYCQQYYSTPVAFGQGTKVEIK
notes: Patient-derived human antibody made recombinantly; also called human monoclonal antibody 34G9
B3: 102G10 (antibody, V domains shown)
VH: EVQLVESGGGLVKPGGSLRLSCAASGFTFSGNSMNWVRQAPGKGLEWVSSISSSSGYIYYADSVKGRFTVSRDNAKNSLYLQMNSLRAEDTAVYYCATWPVTTARVGYWGQGTLVTVSS
VL: QSVLTQPPSASGTPGQRVTISCSGSSSNIGSNYVYWHQQLPGTAPKLLIYRHDQRPSGVPDRFSGSKSGTSASLAISGLRSEDEADYYCAAWDDSLSAWVFGGGTKLTVL
notes: Patient-derived human antibody made recombinantly; also called human monoclonal antibody 102G10

Legend:
[1] = target: T1, MAGEA4; experiment: Western blot of recombinant protein, anti-human IgG-HRP
Protocol: Recombinant MAGEA3- and recombinant MAGEA4-protein were separated in SDS-PAGE and blotted onto membranes. Membranes were incubated with human antibodies 122G3 or 32H2. Binding of human antibodies to proteins on the membrane was evaluated using an HRP-labeled goat anti human IgG (Jackson Immunoresearch, Milan Analytica AG, Rheinfelden, Switzerland). The results are depicted in FIG. 3.

[2] = target: T2, MAGEA3 peptide no 26; experiment: peptide ELISA (coated 20mer) [Figure 1]
Protocol: (§1) 20mer peptides spanning the entire MAGEA3 protein with 10 aa overlaps shared by each adjacent peptide (Peptides&Elephants, Nuthetal, Germany) were used to coat Maxisorp ELISA plates (Nunc, Rochester, N.Y.). As control a 20mer peptide representing amino acids 40-21 from the NY-ESO-1 protein was used (rev). The numbering of amino acids of MAGEA3 is based on SEQ ID No:41.
(§2) Human recombinant antibody was used at a concentration of 1 μg/ml. Bound human antibody was detected using horseradish peroxidase-conjugated goat anti-human IgG Fc-gamma specific antibodies (Jackson ImmunoResearch, Europe Ltd., Cambridgeshire, UK).

[3] = target: T3, MAGEA3 peptide no 13; experiment: peptide ELISA (coated 20mer) [Figure 1]
Protocol: as §1, §2

[4] = target: T4, MAGEA3 peptide no 21; experiment: peptide ELISA (coated 20mer) [Figure 1]
Protocol: as §1, §2

[5] = target: T5, MAGEA3 peptide no 30; experiment: peptide ELISA (coated 20mer) [Figure 1]
Protocol: as §1, §2

[6] = target: T6, MAGEA3 peptide no 11; experiment: peptide ELISA (coated 20mer) [Figure 1]
Protocol: as §1, §2

[7] = target: T7, MAGEA3 peptide no 31; experiment: peptide ELISA (coated 20mer) [Figure 1]
Protocol: as §1, §2

[8] = target: T8, MAGEA3 peptide no 20; experiment: peptide ELISA (coated 20mer) [Figure 1]
Protocol: as §1, §2

[9] = target: T9, MAGEA3 peptide no 15; experiment: peptide ELISA (coated 20mer) [Figure 1]
Protocol: as §1, §2

[10] = target: T10, MAGEA3 peptide no 29; experiment: peptide ELISA (coated 20mer) [Figure 1]
Protocol: as §1, §2

[11] = target: T11, MAGEA3 peptide no 8; experiment: peptide ELISA (coated 20mer) [Figure 1]
Protocol: as §1, §2

[12] = target: T12, MAGEA3 peptide no 7; experiment: peptide ELISA (coated 20mer) [Figure 1]
Protocol: as §1, §2

[13] = target: T13, MAGEA3 peptide no 24; experiment: peptide ELISA (coated 20mer) [Figure 1]
Protocol: as §1, §2

[14] = target: T14, MAGEA3 peptide no 2; experiment: peptide ELISA (coated 20mer) [Figure 1]
Protocol: as §1, §2

[15] = target: T15, MAGEA3 peptide no 18; experiment: peptide ELISA (coated 20mer) [Figure 1]
Protocol: as §1, §2

[16] = target: T16, MAGEA3 peptide no 23; experiment: peptide ELISA (coated 20mer) [Figure 1]
Protocol: as §1, §2

[17] = target: T17, MAGEA3 peptide no 16; experiment: peptide ELISA (coated 20mer) [Figure 1]
Protocol: as §1, §2

[18] = target: T18, MAGEA3 peptide no 3; experiment: peptide ELISA (coated 20mer) [Figure 1]
Protocol: as §1, §2

[19] = target: T19, MAGEA3 peptide no 22; experiment: peptide ELISA (coated 20mer) [Figure 1]
Protocol: as §1, §2

[20] = target: T20, MAGEA3 peptide no 14; experiment: peptide ELISA (coated 20mer) [Figure 1]
Protocol: as §1, §2

[21] = target: T21, MAGEA3 peptide no 27; experiment: peptide ELISA (coated 20mer) [Figure 1]
Protocol: as §1, §2

[22] = target: T22, MAGEA3 peptide no 17; experiment: peptide ELISA (coated 20mer) [Figure 1]
Protocol: as §1, §2

Row | Binder | binding result [1] | binding result [2] | binding result [3] | binding result [4] | binding result [5] | binding result [6] | binding result [7] | binding result [8] | binding result [9] | binding result [10] | binding result [11] | binding result [12] | binding result [13] | binding result [14] | binding result [15] | binding result [16] | binding result [17] | binding result [18] | binding result [19] | binding result [20] | other results
1 | B1 | no binding | – | – | – | – | – | – | – | – | – | – | – | – | – | – | – | – | – | – | – | –
2 | B2 | no binding | no binding (tested: 1 µg/ml) | no binding (tested: 1 µg/ml) | no binding (tested: 1 µg/ml) | no binding (tested: 1 µg/ml) | no binding (tested: 1 µg/ml) | no binding (tested: 1 µg/ml) | no binding (tested: 1 µg/ml) | no binding (tested: 1 µg/ml) | no binding (tested: 1 µg/ml) | no binding (tested: 1 µg/ml) | no binding (tested: 1 µg/ml) | no binding (tested: 1 µg/ml) | no binding (tested: 1 µg/ml) | no binding (tested: 1 µg/ml) | no binding (tested: 1 µg/ml) | no binding (tested: 1 µg/ml) | no binding (tested: 1 µg/ml) | no binding (tested: 1 µg/ml) | no binding (tested: 1 µg/ml) | binding result [21]: no binding (tested: 1 µg/ml); binding result [22]: no binding (tested: 1 µg/ml)
3 | B3 | no binding | no binding (tested: 1 µg/ml) | no binding (tested: 1 µg/ml) | no binding (tested: 1 µg/ml) | no binding (tested: 1 µg/ml) | no binding (tested: 1 µg/ml) | no binding (tested: 1 µg/ml) | no binding (tested: 1 µg/ml) | no binding (tested: 1 µg/ml) | no binding (tested: 1 µg/ml) | no binding (tested: 1 µg/ml) | no binding (tested: 1 µg/ml) | no binding (tested: 1 µg/ml) | no binding (tested: 1 µg/ml) | no binding (tested: 1 µg/ml) | no binding (tested: 1 µg/ml) | no binding (tested: 1 µg/ml) | no binding (tested: 1 µg/ml) | no binding (tested: 1 µg/ml) | no binding (tested: 1 µg/ml) | binding result [21]: no binding (tested: 1 µg/ml); binding result [22]: no binding (tested: 1 µg/ml)
